According to patent US20100227414A1, “Affinity capture mass spectroscopy with a porous silicon biosensor” (Trex Enterprises Corp., priority 2009, published 2010):

Target: extra-cellular receptor for interleukin 34 (Homo sapiens, UniProt P07333)
Assay: NPOI flow cell label-free binding with fraction collection (AC-MS)
Text: The first embodiment is sketched in FIG. 3. The NPOI flow cell instrument is used together with a fraction collector. This fraction collector could simply be a collection vessel of some sort. Initially capture molecule is placed on the porous silicon chip using a typical flow cell procedure. A carboxyl chip shown at 214 in FIG. 2, used for amino coupling, is used. This contains both a sample and reference channel 220 and 221. Using the AutoPrep 200 and two 6-port, 2-position injection valves, one for the sample 210 and one for the reference 211, solutions are introduced to the flow cell. Initially the chip is activated using water as running buffer, pumped by two separate pumps one for sample 212 and one for reference 213, at 8 μL/min. A solution of 200 mM, 1-ethyl-3-(3-dimethylaminopropyl) carbodiimide (EDC) and 50 mM sufo N-hydroxysuccinimide (sNHS) is used to activate the chip for 8 minutes. Then a solution of 20 μg/mL capture molecule is introduced in pH 5.0, 40 mM acetate buffer (1-1,000 μg/mL concentration may also be used). […] The chip is now ready for binding. […]
A specific example of such an approach is shown in FIG. 8 which is a print of a monitor display showing Mascot Search Results. […] The resulting data was analyzed using Mascot and a customized human protein database (810) show the successful identification of IL34.

Sequence of extra-cellular receptor for interleukin 34 (P07333 20-517 limits assumed): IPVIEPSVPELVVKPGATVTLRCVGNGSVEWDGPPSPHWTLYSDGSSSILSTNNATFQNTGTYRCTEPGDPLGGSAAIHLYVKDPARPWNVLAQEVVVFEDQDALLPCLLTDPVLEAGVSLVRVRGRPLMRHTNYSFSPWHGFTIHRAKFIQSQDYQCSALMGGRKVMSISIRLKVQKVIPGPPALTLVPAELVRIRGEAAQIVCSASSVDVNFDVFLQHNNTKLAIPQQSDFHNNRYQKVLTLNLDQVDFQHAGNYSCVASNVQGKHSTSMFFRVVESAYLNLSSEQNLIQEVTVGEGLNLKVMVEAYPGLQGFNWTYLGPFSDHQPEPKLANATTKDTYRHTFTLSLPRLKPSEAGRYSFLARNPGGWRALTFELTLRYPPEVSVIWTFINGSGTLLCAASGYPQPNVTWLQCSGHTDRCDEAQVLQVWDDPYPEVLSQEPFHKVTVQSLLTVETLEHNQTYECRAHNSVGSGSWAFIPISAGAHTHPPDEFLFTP

B1: Interleukin 34 (protein, UniProt Q6ZMJ4 21-242, looked up)
Interleukin-34: NEPLEMWPLTQNEECTVTGFLRDKLQYRSRLQYMKHYFPINYKISVPYEGVFRIANVTRLQRAQVSERELRYLWVLVSLSATESVQDVLLEGHPSWKYLQEVETLLLNVQQGLTDVEVSPKVESVLSLLNAPGPNLKLVRPKALLDNCFRVMELLYCSCCKQSSVLNWQDCEVPSPQSCSPEPSLQYAATQLYPPPPWSPSSPPHSTGSVRPVRAQGEGLLP
notes: Interleukin 34 (the analyte) doped into spent cell culture media
IL34 100 ng/mL in spent cell culture media, 50 μL, between 0 and 240 seconds, receptor immobilized at 100 μg/mL
  change in OPD (label-free binding signal): 0.7 nm
Almost complete capture of the material introduced
  amount captured on chip corresponding to OPD change: 5 ng
